What was measured:
PDE4D3 Ser-54 = PDE4D3 Ser-54 phosphorylation in mAKAP immunoprecipitates from transfected HEK293 cells (phospho-specific immunoblot); type: cell-based; conditions: HEK293 cells over-expressing mAKAP and PDE4D3; OA or 500 μM CsA for 30 min
mAKAP-bound PDE4D3 = assay: PDE activity associated with mAKAP immunoprecipitates from transfected HEK293 cells ([3H]cAMP); type: cell-based; conditions: 300 μM OA 30 min then 5 μM Fsk 10 min
Protocol: Immunoprecipitation—HEK293 cells were used in this project as a heterologous system lacking mAKAP in which the various wildtype and mutant proteins could be easily expressed. Cells cultured on 60 mm plates were transfected at 50%-70% confluency by the calcium phosphate method, using 6 μg of each DNA construct per plate. Cells were harvested 24 hours after transfection in 0.5 ml HSE buffer (HEPES, pH 7.4, 150 mM NaCl, 5 mM EDTA, 1% Triton X-100 and protease inhibitors). Supernatants were incubated with 3 μg antibody and 15 μl prewashed protein A- or G-agarose beads. Following overnight incubation at 4° C., the immunoprecipitates were washed three times with the same buffer. Bound proteins were analyzed by immunoblotting. […]
As phosphorylation of PDE4D3 Ser-54 increases phosphodiesterase activity 2 fold (Sette and Conti 1996), whether OA treatment would also increase the activity of mAKAP-bound PDE4D3 was tested. mAKAP complexes were immunoprecipitated from transfected HEK293 cells and assayed for associated phosphodiesterase activity (FIG. 8B). mAKAP-associated phosphodiesterase activity in untreated cells was detected only when mAKAP was co-expressed with PDE4D3 (FIG. 8B, bar 1, and data not shown), consistent with a previous observation that PDE4D3 accounts for all of the phosphodiesterase activity associated with mAKAP in cardiac myocytes (Dodge et al. 2001).

[1] = test system: mAKAP-associated phosphodiesterase; assay: PDE activity of native mAKAP complexes immunoprecipitated from adult rat heart extracts; type: biochemical
Protocol: (§1) For immunoprecipitation of endogenous, native mAKAP complexes, adult rat hearts (Pel-Freeze) were homogenized in 10 ml HSE buffer. After centrifugation at 15,000×g for 25 minutes, clarified extracts were immunoprecipitated as above.
PDE assay—PDE activity associated with immunoprecipitated protein complexes was assayed according to the method by Beavo et al. (Beavo, Bechtel, and Krebs 1974). Samples were assayed in 45 μl PDE buffer A (100 mM MOPS, pH 7.5, 4 mM EGTA, 1.0 mg/ml bovine serum albumin) and 50 μl PDE buffer B [100 mM MOPS, pH 7.5, 75 mM MgAc, 1 μM cAMP and 100,000 cpm [^3H]cAMP (Dupont, NEN)]. Inhibitors were included as indicated.

[2] = biological target: T1, mAKAP-associated phosphatase (PP2A) (Rattus norvegicus, UniProt P63331); assay: Phosphatase activity of mAKAP complexes immunoprecipitated from adult rat heart extracts ([32P]histone); type: biochemical; conditions: 10 nM
T1 construct: For immunoprecipitation of endogenous, native mAKAP complexes; tissue Pel-Freeze; host or cells: adult rat heart
Protocol: as §1
(§2) Phosphatase Assay—Phosphatase activity was measured according to the method of Ahn et al. using ^32P-labeled histone as substrate (Ahn et al. 2007). Histone was radiolabeled in reactions containing 250 mM MOPS, pH 7.4, 2.5 mM MgAc, 100 mM β-mercaptoethanol, purified PKA catalytic subunit, 1 μM ATP, 20 μM histone, and 1 mCi [γ-^32P]ATP (6000 Ci/mmol). The reaction was terminated by the addition of 50% TCA, and [^32P]histone was purified from free radionucleotide by centrifugation. The [^32P]histone pellet was washed with 1 ml of ether/ethanol/HCL (4:1:0.1) once and 1 ml of ether/ethanol (4:1) three times. The substrate was then suspended in 200 μl PP2A assay buffer (25 mM Tris, pH 7.4, 1 mM DTT, and 10 mM MgCl2) before precipitation with 50% TCA. After repeated washing, the [^32P]histone was suspended in 200 μl PP2A buffer.
(§3) To measure phosphatase activity, immunoprecipitated protein complexes were washed twice in HSE buffer and once in PP2A reaction buffer. […] TCA supernatants containing released ^32PO4 were measured by scintillation counting.

SRF Ser^103 [3] = assay: SRF Ser103 phosphorylation in neonatal rat ventricular myocytes (NRVM); type: cell-based; conditions: 1 hour, 1 μM OA or 1 μg/ml CsA
Protocol: (§4) Neonatal Rat Ventricular Myocyte Culture: 1-3 day old Sprague-Dawley rats were decapitated, and the excised hearts placed in 1× ADS Buffer (116 mM NaCl, 20 mM HEPES, 1 mM NaH2PO4, 5.5 mM glucose, 5.4 mM KCl, 0.8 mM MgSO4, pH 7.35). The atria were carefully removed and the blood washed away. The ventricles were minced and incubated with 15 mL 1× ADS Buffer containing 3.3 mg type II collagenase (Worthington, 230 U/mg) and 9 mg Pancreatin (Sigma) at 37° C. with gentle shaking. After 15 minutes, the dissociated cardiac myocytes were separated by centrifugation at 50 g for 1 minute, resuspended in 4 mL horse serum and incubated at 37° C. with occasional agitation. The steps for enzymatic digestion and isolation of myocytes were repeated 10-12 times to maximize yield. The myocytes were pooled and spun down again at 50 g for 2 minutes and resuspended in Maintenance Medium (DMEM:M199, 4:1) supplemented with 10% horse serum and 5% fetal bovine serum. To remove any contaminating fibroblasts, the cells were pre-plated for 1 hour before plating on gelatin-coated tissue culture plastic ware. This procedure yields >90% pure cardiac myocytes. After 1 day culture, the media was changed to maintenance medium containing 0.1 mM bromodeoxyuridine to suppress fibroblast growth. […]

[4] = test system: full-length mAKAP mutant with an internal deletion of residues 2053-2073 comprising the PKA binding site (ΔPKA)
[5] = test system: full-length wildtype mAKAP (GFP-tagged) expressed in HEK293 cells
[6] = test system: mAKAP-associated phosphatase (PP2A); assay: Phosphatase activity of mAKAP complexes immunoprecipitated from adult rat heart extracts ([32P]histone); type: biochemical; conditions: 50 μM CPT-cAMP, 5 min pre-incubation
Protocol: as §1, §2, §3

SRF Ser^103 [7] = assay: SRF Ser103 phosphorylation in adult rat ventricular myocytes (ARVM); type: cell-based; conditions: 10 μM Iso 1 day
Protocol: Adult rat ventricular myocyte isolation and culture: 2-3 month old rats were anesthetized using Ketamine (80-100 mg/kg) and Xylazine (5-10 mg/kg) IP following 1000 U heparinization for cardiac excision. The heart was transferred immediately into chilled perfusion buffer (NaCl 120 mM, KCl 5.4 mM, Na2HPO4·7H2O 1.2 mM, NaHCO320.0 mM, MgCl2·6H2O 1.6 mM, Taurine 5 mM, Glucose 5.6 mM, 2,3-Butanedione monoxime 10 mM) pre-equilibrated with 95% O2 and 5% CO2. After removal of extraneous tissue, the heart was attached via the aorta to a Harvard Langendorff apparatus cannula. Ca^2+-free perfusion was used to flush out remaining blood with a constant rate of 8-10 mL/min at 37° C. The heart was then digested through circulatory perfusion with 50 mL perfusion buffer containing 125 mg type II collagenase (Worthington, 245 U/mg), 0.1 mg protease (Sigma type XIV) and 0.1% BSA. After perfusion, the atria were removed and the ventricular myocytes dissociated by slicing and repetitive pipetting. The debris was filtered by a 200 μm nylon mesh, and the myocytes collected by one minute centrifugation at 50 g. […]

[8] = test system: adult rat ventricular myocytes (ARVM); assay: ARVM morphologic hypertrophy (cell width and length by immunocytochemistry); type: cell-based; conditions: adenoviral expression; for Iso-induced ARVM hypertrophy: 10 μM Iso 24 hours
Protocol: Adult rat ventricular myocyte isolation and culture: 2-3 month old rats were anesthetized using Ketamine (80-100 mg/kg) and Xylazine (5-10 mg/kg) IP following 1000 U heparinization for cardiac excision. The heart was transferred immediately into chilled perfusion buffer (NaCl 120 mM, KCl 5.4 mM, Na2HPO4·7H2O 1.2 mM, NaHCO320.0 mM, MgCl2·6H2O 1.6 mM, Taurine 5 mM, Glucose 5.6 mM, 2,3-Butanedione monoxime 10 mM) pre-equilibrated with 95% O2 and 5% CO2. After removal of extraneous tissue, the heart was attached via the aorta to a Harvard Langendorff apparatus cannula. Ca^2+-free perfusion was used to flush out remaining blood with a constant rate of 8-10 mL/min at 37° C. The heart was then digested through circulatory perfusion with 50 mL perfusion buffer containing 125 mg type II collagenase (Worthington, 245 U/mg), 0.1 mg protease (Sigma type XIV) and 0.1% BSA. After perfusion, the atria were removed and the ventricular myocytes dissociated by slicing and repetitive pipetting. The debris was filtered by a 200 μm nylon mesh, and the myocytes collected by one minute centrifugation at 50 g. Ca^2+ concentration in the buffer was gradually recovered to 1.8 mM and the myocytes were resuspended in ACCT medium (M199 Medium (Invitrogen 11150-059), Creatine 5 mM, L-carnitine 2 mM, Taurine 5 mM, HEPES 25 mM, 2,3-Butanedione monoxime 10 mM, BSA 0.2% and 1×Insulin-Transferrin-Selenium Supplement) and plated on 10 μg/ml laminin pre-coated dishes. Cells were washed with ACCT medium 1.5 hours after plating and subjected to adenoviral infection or siRNA transfection, in which 100-200 Multiplicity of Infection (MOI) of adenovirus and 100 nmol/L siRNA mixed with Dharmafect1 (Dharmacon) were used, respectively. Adrenergic agonists were added the next day, with biochemical assay and morphological measurement performed after 24 hours of stimulation.
Immunocytochemistry: Myocytes on coverslips were fixed in 3.7% formaldehyde in PBS for 1 hour, permeabilized with 0.3% Triton X-100, and blocked in PBS containing 0.2% BSA and 1% horse serum. The slides were then sequentially incubated for 1 hour with primary and Alexa fluorescent dye-conjugated specific-secondary antibodies (Invitrogen, 1:1000) diluted in blocking buffer. The slips were washed three times with blocking buffer. 1 μg/mL Hoechst 33258 was included in the last wash stop to label nuclei. Slides were sealed in SlowFade Gold antifade buffer (Invitrogen, S36938) for fluorescent microscopy. Wide-field images were acquired using a Leica DM4000 Microscope.

mAKAPβ-PP2A association = assay: Co-immunoprecipitation of endogenous mAKAPβ-PP2A in myocytes; type: cell-based, rat; conditions: NRVM infected with adenovirus
Protocol: as §4

full-length mAKAP mutant with an internal deletion of residues 2053-2073 comprising the PKA binding site (ΔPKA), sequence (chain, as listed by the source mutant): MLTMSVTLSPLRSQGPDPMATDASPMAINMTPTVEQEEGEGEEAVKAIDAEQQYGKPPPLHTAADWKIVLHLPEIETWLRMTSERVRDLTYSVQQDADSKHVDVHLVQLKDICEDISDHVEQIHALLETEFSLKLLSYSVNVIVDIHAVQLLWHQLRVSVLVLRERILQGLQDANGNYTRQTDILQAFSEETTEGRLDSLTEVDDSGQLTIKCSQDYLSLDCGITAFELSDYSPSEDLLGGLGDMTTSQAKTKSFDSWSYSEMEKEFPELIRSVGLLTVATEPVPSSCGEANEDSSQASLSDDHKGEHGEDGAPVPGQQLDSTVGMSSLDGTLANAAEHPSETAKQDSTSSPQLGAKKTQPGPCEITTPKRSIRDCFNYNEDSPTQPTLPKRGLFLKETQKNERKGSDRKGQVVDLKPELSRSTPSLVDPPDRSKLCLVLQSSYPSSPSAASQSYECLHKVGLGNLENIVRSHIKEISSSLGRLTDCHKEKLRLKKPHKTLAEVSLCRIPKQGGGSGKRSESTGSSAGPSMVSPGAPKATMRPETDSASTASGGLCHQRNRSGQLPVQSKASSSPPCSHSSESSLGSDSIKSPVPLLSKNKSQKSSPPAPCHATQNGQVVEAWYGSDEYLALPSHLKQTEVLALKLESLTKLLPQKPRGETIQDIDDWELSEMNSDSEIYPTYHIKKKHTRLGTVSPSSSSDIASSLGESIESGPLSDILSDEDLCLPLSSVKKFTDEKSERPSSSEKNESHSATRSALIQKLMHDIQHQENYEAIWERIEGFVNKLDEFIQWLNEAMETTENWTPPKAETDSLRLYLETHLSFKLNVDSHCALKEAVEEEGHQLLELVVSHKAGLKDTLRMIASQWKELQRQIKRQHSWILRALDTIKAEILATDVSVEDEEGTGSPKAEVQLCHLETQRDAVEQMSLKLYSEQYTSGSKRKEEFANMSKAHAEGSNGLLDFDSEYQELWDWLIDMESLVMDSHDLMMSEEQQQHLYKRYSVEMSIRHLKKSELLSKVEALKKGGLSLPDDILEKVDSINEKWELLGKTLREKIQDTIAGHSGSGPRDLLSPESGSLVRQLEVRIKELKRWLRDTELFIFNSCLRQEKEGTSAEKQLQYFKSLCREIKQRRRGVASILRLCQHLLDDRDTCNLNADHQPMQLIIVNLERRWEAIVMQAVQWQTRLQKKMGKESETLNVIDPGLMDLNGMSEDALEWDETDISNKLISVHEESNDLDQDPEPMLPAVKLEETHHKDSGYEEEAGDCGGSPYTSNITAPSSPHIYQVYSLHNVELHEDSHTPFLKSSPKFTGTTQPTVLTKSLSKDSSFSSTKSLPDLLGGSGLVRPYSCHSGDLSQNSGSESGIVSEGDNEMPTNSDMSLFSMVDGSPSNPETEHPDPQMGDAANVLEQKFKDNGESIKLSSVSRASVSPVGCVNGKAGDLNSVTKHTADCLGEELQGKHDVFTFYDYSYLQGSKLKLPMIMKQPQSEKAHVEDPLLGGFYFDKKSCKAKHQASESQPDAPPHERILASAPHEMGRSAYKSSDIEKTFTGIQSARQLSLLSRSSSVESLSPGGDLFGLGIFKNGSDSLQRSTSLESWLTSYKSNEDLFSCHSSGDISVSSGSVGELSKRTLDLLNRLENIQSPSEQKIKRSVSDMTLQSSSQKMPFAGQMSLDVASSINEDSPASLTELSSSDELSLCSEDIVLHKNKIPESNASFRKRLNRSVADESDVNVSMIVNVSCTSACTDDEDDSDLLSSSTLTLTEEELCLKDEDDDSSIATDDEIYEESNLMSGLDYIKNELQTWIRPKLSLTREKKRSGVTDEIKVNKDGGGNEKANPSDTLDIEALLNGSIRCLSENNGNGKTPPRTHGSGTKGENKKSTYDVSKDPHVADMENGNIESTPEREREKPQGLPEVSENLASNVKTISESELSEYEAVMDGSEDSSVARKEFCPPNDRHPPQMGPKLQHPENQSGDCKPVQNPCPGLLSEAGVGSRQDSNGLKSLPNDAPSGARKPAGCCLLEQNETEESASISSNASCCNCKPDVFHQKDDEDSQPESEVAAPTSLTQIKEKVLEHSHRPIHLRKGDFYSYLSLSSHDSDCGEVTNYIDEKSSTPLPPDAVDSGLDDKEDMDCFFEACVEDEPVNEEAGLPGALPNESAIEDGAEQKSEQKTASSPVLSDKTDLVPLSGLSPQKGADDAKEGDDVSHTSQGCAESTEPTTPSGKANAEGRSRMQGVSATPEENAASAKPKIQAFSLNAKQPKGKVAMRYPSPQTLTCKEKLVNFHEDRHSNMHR
full-length wildtype mAKAP (GFP-tagged) expressed in HEK293 cells, sequence (chain, as listed by the source): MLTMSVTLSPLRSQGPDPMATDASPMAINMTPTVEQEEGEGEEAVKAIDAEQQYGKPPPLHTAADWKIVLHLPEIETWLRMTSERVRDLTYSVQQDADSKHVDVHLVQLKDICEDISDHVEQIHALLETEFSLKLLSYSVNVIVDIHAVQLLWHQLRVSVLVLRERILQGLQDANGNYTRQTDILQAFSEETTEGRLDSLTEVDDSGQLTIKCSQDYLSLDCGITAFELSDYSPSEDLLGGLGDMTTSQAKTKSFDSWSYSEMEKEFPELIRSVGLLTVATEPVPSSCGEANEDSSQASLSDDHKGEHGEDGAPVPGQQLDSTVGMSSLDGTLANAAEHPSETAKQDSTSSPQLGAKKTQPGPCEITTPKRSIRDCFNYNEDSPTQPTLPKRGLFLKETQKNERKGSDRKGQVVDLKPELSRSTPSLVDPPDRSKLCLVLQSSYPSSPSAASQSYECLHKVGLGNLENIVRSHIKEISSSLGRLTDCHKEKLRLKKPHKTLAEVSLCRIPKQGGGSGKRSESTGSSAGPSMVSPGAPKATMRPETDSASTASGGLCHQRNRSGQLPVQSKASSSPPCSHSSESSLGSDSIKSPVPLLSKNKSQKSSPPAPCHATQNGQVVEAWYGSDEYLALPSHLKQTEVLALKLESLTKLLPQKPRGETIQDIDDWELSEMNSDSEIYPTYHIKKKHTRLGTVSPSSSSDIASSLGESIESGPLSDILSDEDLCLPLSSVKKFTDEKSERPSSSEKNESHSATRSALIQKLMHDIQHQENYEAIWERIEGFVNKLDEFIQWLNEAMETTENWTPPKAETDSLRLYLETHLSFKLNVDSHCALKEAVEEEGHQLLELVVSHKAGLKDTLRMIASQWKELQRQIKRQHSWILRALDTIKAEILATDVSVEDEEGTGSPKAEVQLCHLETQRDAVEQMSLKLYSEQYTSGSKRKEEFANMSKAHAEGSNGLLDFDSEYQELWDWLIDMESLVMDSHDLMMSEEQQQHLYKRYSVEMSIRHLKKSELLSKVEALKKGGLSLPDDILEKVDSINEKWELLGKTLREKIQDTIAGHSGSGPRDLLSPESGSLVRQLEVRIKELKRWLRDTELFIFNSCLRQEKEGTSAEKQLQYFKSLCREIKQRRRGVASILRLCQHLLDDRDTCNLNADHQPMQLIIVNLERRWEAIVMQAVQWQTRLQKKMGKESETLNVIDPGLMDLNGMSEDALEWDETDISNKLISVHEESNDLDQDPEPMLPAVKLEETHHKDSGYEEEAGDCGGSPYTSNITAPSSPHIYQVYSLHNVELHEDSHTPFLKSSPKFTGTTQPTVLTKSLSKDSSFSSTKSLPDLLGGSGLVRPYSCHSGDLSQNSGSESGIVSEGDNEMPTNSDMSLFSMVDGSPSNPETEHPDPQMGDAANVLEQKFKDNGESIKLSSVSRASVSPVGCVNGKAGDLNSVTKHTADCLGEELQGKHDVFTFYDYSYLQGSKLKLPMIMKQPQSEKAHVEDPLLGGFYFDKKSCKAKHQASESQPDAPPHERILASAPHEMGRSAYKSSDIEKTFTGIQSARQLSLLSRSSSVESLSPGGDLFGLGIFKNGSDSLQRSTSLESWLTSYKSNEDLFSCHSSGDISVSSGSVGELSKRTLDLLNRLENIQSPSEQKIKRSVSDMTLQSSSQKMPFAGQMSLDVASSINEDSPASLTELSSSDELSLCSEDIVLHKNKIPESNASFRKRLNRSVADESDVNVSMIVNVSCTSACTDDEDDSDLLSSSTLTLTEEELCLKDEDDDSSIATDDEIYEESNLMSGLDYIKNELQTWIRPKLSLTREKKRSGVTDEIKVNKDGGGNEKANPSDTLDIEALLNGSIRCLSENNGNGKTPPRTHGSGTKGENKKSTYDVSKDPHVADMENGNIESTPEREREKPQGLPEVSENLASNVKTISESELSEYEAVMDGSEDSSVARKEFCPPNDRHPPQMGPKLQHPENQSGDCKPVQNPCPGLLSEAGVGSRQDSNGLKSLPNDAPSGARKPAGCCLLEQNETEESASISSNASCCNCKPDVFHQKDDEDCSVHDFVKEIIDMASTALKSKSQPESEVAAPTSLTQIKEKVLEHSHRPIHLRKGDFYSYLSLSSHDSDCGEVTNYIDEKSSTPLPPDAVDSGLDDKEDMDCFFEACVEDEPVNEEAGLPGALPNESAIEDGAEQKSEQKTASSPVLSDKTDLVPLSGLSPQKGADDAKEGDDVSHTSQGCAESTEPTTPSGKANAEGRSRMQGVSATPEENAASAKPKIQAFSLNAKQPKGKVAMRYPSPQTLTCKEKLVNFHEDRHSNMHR
T1 sequence (P63331 whole entry): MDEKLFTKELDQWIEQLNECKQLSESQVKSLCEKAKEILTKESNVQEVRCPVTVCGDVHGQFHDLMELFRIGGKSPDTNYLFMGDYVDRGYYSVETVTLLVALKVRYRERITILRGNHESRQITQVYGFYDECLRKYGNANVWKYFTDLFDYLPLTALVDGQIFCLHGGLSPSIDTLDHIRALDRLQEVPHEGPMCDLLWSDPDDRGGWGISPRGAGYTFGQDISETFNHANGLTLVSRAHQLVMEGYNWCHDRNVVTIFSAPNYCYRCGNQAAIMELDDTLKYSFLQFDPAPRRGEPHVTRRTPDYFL

Molecule: C=C1[C@@H](O)[C@@H]2O[C@]3(CC[C@H](/C=C/[C@@H](C)[C@@H]4CC(C)=C[C@@]5(O[C@H](C[C@@](C)(O)C(=O)O)CC[C@H]5O)O4)O3)CC[C@H]2O[C@@H]1[C@@H](O)C[C@H](C)[C@H]1O[C@@]2(CCCCO2)CC[C@H]1C [OA, okadaic acid]
- baseline phosphorylation of PDE4D3 Ser-54 (PDE4D3 Ser-54): increase in the baseline phosphorylation of PDE4D3 Ser-54
- mAKAP-bound PDE4D3 activity, Fsk and OA treatment together (mAKAP-bound PDE4D3): synergistically increased PDE4D3 activity
- increase in mAKAP-associated phosphodiesterase activity when PKA was also inhibited ([1]; 10 nM OA with 50 nM PKI): 60%
- increase in mAKAP-associated phosphodiesterase activity ([1]; 10 nM OA, native complexes from adult rat heart): 30%
- inhibition of mAKAP-associated phosphatase activity [2]: all immunoprecipitated phosphatase activity was inhibited
- baseline phosphorylation of SRF Ser^103 (SRF Ser^103 [3]): promoted baseline phosphorylation of SRF Ser^103

Molecule: PKA (cAMP-dependent protein kinase) endogenous in HEK293 cells
- B56δ Ser-566 phosphorylation in mAKAP immunoprecipitates [4]: B56δ phosphorylation was detected only after FSK/IBMX treatment and only when B56δ was co-expressed with wildtype mAKAP and not the ΔPKA mutant
- phosphatase activity in mAKAP immunoprecipitates after Fsk/IBMX [4]: no increase was obtained when B56δ was co-expressed with the mAKAP ΔPKA mutant scaffold
- phosphatase activity in mAKAP immunoprecipitates after Fsk/IBMX [5]: cAMP elevation increased phosphatase activity in mAKAP complexes 1.7 fold

Molecule: Nc1ncnc2c1nc(Sc1ccc(Cl)cc1)n2[C@@H]1O[C@@H]2COP(=O)([O-])O[C@H]2[C@H]1O.[Na+] [CPT-cAMP, 8-(4-chlorophenylthio)adenosine 3′,5′-cyclic monophosphate]
- increase of mAKAP-associated phosphatase activity [6]: 2.5 fold

B1: PBD: myc-tagged mAKAP aa 2134-2314 fragment, PP2A anchoring disruptor, expressed by adenovirus (protein)
chain: MEQKLISEEDLSPGMLTMSVTLSPLRSQTPLPPDAVDSGLDDKEDMDCFFEACVEDEPVNEEAGLPGALPNESAIEDGAEQKSEQKTASSPVLSDKTDLVPLSGLSPQKGADDAKEGDDVSHTSQGCAESTEPTTPSGKANAEGRSRMQGVSATPEENAASAKPKIQAFSLNAKQPKGKVAMRYPSPQTLTCKEKLVNFHEDRHSNMHR
modifications: myc-tagged rat mAKAP PBD
notes: myc-tagged mAKAP aa 2134-2314 fragment, PP2A anchoring disruptor, expressed by adenovirus
- Iso-induced SRF Ser^103 phosphorylation (SRF Ser^103 [7]): potentiated the induction of SRF Ser^103 phosphorylation
- Iso-induced ARVM hypertrophy [8]: attenuated the eccentric hypertrophy
- Iso-induced ARVM hypertrophy ([8]; listed as PDB): promoted ARVM concentric hypertrophy
- PE-induced ARVM hypertrophy ([8]; 20 μM PE 24 hours): did not enhance nor diminish
- basal ARVM morphology ([8]; no drug): no effect
- endogenous mAKAPβ-PP2A association (mAKAPβ-PP2A association): competed endogenous mAKAPβ-PP2A association
